Data on one molecule can be found in patent EP4480965A1, “TRANSFERRIN RECEPTOR-BINDING MOLECULES, CONJUGATES THEREOF AND THEIR USES TO PREVENT OR TREAT CNS DISEASES” (Vect-Horus, priority 2023, dated 2024).

The test system of the data set is murine SOD1 mRNA. Put plainly: siRNA biodistribution and SOD1 mRNA by in situ hybridization (miRNAScope / RNAScope). Format: in vivo, C57Bl/6 mice. The following applies: single ICV dose 100 µg, seven days. The method, then: For ISH bioanalysis, 20 µm sagittal cryosections of left brain hemispheres or coronal sections of spinal cords were prepared using a cryostat at -20°C (Leica), collected onto superfrost plus slides and stored at - 80°C until processing. For RNAScope® or miRNAScope® assays, slides containing cyosections were immediately transferred and fixed in 10% Neutral buffered formalin (NBF) for 1h30 at RT. Fluorescent RNAscope® assay for mRNAs detection or chromogenic miRNAscope® assay for siRNA detection were performed according to the manufacter's protocols (Advanced Cell Diagnostics, ACD). […] This distribution correlates with a broad and potent SOD1 mRNA knock-down, as assessed using RNAScope® (Figure 29B and 29E, right panels). […]
For ISH bioanalysis, 20 µm sagittal cryosections of left brain hemispheres or coronal sections of spinal cords were prepared using a cryostat at -20°C (Leica), collected onto superfrost plus slides and stored at - 80°C until processing. […] This distribution correlates with a broad TfR-dependent and potent SOD1 mRNA knock-down, as assessed using RNAScope® (Figure 31C and 31I, right panels).
An example of cleavable linker was evaluated and compared to the C5-hFc-siSOD1m-5'VP for its biodistribution in CNS tissues following systemic administration. […]

B1: C5-siSOD1m-5'VP: TfR-binding VHH-siRNA conjugate wherein VHH is C5 (conjugate)
VHH: EVQLVESGGGVVQPGGSLKLSCVASGTDFSINFIRWYRQAPGKQREFVAGFTATGNTNYADSMKGRFTISRDNTKNAVYLQIDSLKPEDTAVYYCYMLDKWGQGTQVTVSSAAAEQKLISEEDLNGAAHHHHHHGS
On to B1, for which the “biodistribution of the siSOD1m AS strand in brain and spinal cord” value is recorded as “broad biodistribution”.
